Among the data in PMC3038869 are percent reduction of Drk in the EGFR complex values, retold here.

This assay has as its target Epidermal Growth Factor Receptor (EGFR), Drosophila, endogenous (Drosophila (endogenous in ovaries)) (UniProt P04412). The assay can be described thus: co-IP; ovarian lysates of wild-type females or females expressing D-CblL or RING-SH2^Drk in follicle cells, immunoprecipitated with mouse monoclonal anti-EGFR, 4°C; blotted with rabbit anti-EGFR and anti-Drk.
Chain of UniProt P04412 (P04412 31-1426): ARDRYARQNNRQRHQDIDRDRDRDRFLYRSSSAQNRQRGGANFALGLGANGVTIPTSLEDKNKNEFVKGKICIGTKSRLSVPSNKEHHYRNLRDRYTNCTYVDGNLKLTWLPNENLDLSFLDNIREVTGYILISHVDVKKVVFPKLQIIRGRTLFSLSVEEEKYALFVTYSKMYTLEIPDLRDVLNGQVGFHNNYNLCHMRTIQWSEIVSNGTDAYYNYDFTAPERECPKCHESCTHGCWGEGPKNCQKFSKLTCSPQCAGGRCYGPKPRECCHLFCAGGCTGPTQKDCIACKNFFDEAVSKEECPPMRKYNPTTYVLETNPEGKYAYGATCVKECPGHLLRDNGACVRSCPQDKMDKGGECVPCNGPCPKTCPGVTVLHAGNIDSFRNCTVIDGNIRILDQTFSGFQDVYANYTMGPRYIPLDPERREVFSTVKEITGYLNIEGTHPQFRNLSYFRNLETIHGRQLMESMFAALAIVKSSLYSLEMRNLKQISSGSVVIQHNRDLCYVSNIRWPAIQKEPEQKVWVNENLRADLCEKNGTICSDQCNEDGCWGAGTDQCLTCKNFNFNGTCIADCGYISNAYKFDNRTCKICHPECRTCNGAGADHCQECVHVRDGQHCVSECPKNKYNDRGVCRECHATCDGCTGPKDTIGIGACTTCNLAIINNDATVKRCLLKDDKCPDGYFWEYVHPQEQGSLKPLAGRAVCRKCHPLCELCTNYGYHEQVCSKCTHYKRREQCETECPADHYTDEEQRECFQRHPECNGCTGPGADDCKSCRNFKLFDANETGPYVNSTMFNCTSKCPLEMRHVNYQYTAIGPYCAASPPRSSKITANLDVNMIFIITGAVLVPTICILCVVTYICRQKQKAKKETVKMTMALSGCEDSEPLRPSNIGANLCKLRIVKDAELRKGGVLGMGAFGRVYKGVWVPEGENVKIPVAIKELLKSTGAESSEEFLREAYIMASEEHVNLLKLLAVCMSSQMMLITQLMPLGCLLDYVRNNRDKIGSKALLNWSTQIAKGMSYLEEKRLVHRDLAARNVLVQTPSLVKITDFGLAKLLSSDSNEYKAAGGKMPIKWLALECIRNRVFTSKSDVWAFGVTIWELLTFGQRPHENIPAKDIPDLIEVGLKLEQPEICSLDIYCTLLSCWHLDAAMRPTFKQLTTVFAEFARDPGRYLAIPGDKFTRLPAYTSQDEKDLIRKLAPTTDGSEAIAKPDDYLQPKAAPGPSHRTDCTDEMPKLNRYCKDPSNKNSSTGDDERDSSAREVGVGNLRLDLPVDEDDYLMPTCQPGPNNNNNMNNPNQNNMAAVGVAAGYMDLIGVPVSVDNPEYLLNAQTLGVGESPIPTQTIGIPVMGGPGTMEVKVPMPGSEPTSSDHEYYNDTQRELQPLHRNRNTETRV

In turn, “RING-SH2^Drk, fusion of the RING finger domain of D-CblL and the SH2 domain of Drk (from UniProt Q08012 53-160)” returned a percent reduction of Drk in the EGFR complex of 40%.
